The target in test [1] is T1, human LTβR on A375 cells (human, UniProt P36941 31-435). Nature of the test: cell-based or functional assay.
The target in test [2] is T2, human FAP on HEK293-hFAP cells (human, UniProt Q12884 1-760).
T2 construct: whole, on cells; also called human FAP-expressing cell line
T2 sequence (looked up): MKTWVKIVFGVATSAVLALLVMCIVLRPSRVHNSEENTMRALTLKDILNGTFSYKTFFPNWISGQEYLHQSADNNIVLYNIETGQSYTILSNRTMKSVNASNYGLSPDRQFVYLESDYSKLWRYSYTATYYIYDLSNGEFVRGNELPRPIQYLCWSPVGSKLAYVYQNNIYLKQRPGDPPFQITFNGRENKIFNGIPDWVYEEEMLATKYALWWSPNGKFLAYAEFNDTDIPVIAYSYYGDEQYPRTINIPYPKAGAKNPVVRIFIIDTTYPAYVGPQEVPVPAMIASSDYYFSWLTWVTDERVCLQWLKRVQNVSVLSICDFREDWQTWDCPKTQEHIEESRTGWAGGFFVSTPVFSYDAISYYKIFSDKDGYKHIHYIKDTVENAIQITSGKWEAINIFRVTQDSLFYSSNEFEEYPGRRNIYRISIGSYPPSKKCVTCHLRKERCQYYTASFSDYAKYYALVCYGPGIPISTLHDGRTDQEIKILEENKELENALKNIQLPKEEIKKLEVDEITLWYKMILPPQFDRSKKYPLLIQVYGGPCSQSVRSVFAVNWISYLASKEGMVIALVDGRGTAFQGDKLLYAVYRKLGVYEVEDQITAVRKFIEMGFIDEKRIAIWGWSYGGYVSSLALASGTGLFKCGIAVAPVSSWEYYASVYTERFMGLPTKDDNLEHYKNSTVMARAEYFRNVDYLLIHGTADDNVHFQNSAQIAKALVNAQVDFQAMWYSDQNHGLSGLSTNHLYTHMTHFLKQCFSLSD
Briefly: flow cytometry on HEK293-hFAP cells, 1 µg protein, anti-human IgG detection. Here is the method: (§1) Specifically, the cell line was prepared by suspending in a FACS buffer solution at 1×10⁵ cells/100 μL, and treated with 1 μg each of T3.10, T3.01, T3.05, T3.06, T3.14, and T3.18. The cells were washed twice with a FACS buffer solution. The cells were stained with an anti-human IgG antibody (Biolegend). The negative control sample was stained only with an anti-human IgG antibody (Biolegend). The expression ratio of the stained cells was measured using BD LSR and analyzed using FlowJo software.
(In general: In flow cytometry, cells or beads pass a laser one at a time.)

Test [3] has as its target T1, human LTβR on A375 cells. Briefly: flow cytometry on A375 cells, serial dilution from 500 nM, anti-human IgG detection. On the procedure:
Specifically, the A375 cell line was prepared by suspending in a FACS buffer solution at 1×10⁵ cells/100 μL, and treated with 100 μL each of T3.01, T3.07, T3.04, and T3.18 prepared by suspending at 500 nM and diluting by serial dilution. The cells were washed twice with a FACS buffer solution. The cells were stained with an anti-human IgG antibody (Biolegend). The expression ratio of the stained cells was measured using BD LSR and analyzed using FlowJo software.

Test [4] has as its target T3, recombinant human lymphotoxin beta receptor (LTβR) (human, UniProt P36941 28-227, limits assumed).
T3 construct: neither construct is described; also called human LTβR; recombinant human LTβR protein
Briefly: SPR, human LTβR immobilised on CM5, fusion protein as analyte, 1:1 binding model. On the procedure: Specifically, the surface of the CM5 chip was activated with a 1:1 mixture of […], and 5 μg/mL of human LTβR was immobilized for 60 seconds at a rate of 10 μL/min. The remaining active ester groups were blocked with 1 M ethanolamine. […] The diluted fusion proteins were reacted at a rate of 30 μL/min. The association and dissociation times were 180 seconds and 400 seconds, respectively. After the dissociation step, stabilization was performed for 60 seconds, and then the regeneration step was performed for 30 seconds with a 10 mM glycine pH 1.5 solution at a rate of 30 μL/min.
On the technique in general: SPR reads the build-up and loss of mass on a sensor chip optically.

Test [5] deals with T4, human DcR3 (human, UniProt O95407 30-300).
T4 construct: also called LIGHT receptor DcR3
T4 sequence (looked up): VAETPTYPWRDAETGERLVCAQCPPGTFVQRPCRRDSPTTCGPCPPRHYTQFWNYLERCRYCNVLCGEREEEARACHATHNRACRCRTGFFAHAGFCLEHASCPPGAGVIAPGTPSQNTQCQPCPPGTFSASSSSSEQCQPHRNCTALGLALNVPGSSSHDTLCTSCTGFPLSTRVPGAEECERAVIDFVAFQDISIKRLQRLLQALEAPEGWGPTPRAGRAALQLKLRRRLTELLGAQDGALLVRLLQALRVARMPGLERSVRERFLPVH
Nature of the test: SPR, human DcR3 immobilised on CM5, fusion protein as analyte, 1:1 binding model. Here is the method:
(§2) Specifically, the surface of the CM5 chip was activated with a 1:1 mixture of […], and 5 to 6 μg/mL of human DcR3 was immobilized for 60 seconds at a rate of 10 μL/min. The remaining active ester groups were blocked with 1 M ethanolamine. T3.01, T3.07, T3.09, T3.14, and T3.18 were each diluted to 50 nM or 200 nM in 1×HBS-EP+buffer solution and diluted by serial dilution. The diluted fusion proteins were reacted at a rate of 30 μL/min. The association and dissociation times were 180 seconds and 400 seconds, respectively. After the dissociation step, stabilization was performed for 60 seconds, and then the regeneration step was performed for 30 seconds with a 10 mM glycine pH 1.5 solution at a rate of 30 μL/min.

Test [6] has as its target T2, human FAP on HEK293-hFAP cells. Nature of the test: flow cytometry on HEK293-hFAP cells, 1 ug protein per 1x10^5 cells, anti-human IgG detection (axis TMEkine-PE). On the procedure: as §1
In test [7] the target is T5, recombinant human herpes virus entry mediator (HVEM) (human, UniProt Q92956 39-202).
T5 construct: neither construct is described; also called human HVEM; recombinant human HVEM protein (R&D systems)
T5 sequence (looked up): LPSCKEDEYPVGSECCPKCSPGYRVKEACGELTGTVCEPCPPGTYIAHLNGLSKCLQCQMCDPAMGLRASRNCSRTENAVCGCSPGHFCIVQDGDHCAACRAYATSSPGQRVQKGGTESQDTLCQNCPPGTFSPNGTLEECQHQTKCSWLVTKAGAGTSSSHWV
Nature of the test: SPR, human HVEM immobilised on the chip (title: PRO121; 6ug/ml human HVEM pH5.5), T3.18 as analyte 0.78125-100 nM. Here is the method:
as §2, with “HVEM” for “DcR3”, “100” for “50 nM or 200”

The Kd is the constant that tells how readily two partners part at equilibrium. The term koff denotes the rate constant with which the complex falls apart. Usually kon stands for the second-order rate constant of association.

A value given as a limit tells only on which side of the number the result lay.

T3 sequence (P36941 28-227 limits assumed): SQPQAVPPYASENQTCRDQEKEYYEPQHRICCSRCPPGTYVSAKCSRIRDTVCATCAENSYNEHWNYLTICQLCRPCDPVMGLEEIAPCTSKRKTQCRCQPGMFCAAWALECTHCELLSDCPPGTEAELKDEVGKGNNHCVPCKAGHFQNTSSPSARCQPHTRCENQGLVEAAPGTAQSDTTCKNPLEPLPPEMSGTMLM
T1 sequence (P36941 31-435): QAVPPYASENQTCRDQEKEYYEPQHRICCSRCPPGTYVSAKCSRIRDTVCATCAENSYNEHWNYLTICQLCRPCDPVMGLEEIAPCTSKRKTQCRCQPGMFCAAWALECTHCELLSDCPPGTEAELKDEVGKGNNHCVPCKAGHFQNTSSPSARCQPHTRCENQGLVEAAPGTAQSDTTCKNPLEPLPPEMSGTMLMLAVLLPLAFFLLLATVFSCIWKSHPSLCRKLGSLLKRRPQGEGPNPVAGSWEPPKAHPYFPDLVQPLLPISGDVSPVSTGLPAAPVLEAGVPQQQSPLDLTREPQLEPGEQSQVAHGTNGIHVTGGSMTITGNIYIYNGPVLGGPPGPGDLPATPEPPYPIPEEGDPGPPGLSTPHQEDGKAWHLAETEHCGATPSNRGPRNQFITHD

B1: T3.18 (anti-hu FAP/hu scLIGHT(GGSG)-LTb2, hu IgG1 DANG) (bispecific antibody)
heavy: QVQLVQSGAEVKKPGASVKVSCKTSRYTFTEYTIHWVRQAPGQRLEWIGGINPNNGIPNYNQKFKGRVTITVDTSASTAYMELSSLRSEDTAVYYCARRRIAYGYDEGHAMDYWGQGTLVTVSSASTKGPSVFPLAPSSKSTSGGTAALGCLVKDYFPEPVTVSWNSGALTSGVHTFPAVLQSSGLYSLSSVVTVPSSSLGTQTYICNVNHKPSNTKVDKKVEPKSCDKTHTCPPCPAPELLGGPSVFLFPPKPKDTLMISRTPEVTCVVVAVSHEDPEVKFNWYVDGVEVHNAKTKPREEQYGSTYRVVSVLTVLHQDWLNGKEYKCKVSNKALPAPIEKTISKAKGQPREPQVYTLPPSRDELTKNQVSLWCLVKGFYPSDIAVEWESNGQPENNYKTTPPVLDSDGSFFLYSKLTVDKSRWQQGNVFSCSVMHEALHNHYTQKSLSLSPGK
light: not shown
chain: not shown
notes: Knob-into-hole; LIGHT-LTb2 heterotrimer with GGSG linker after LIGHT
Take B1: the “IL-8 secretion of A375 cells, EC50 (FIG. 15b)” value in test [1] came out at 0.0778 nM. In test [2], the “percent of cells bound” value was at least 99%. In test [3], the “percent of cells bound” value is at least 96%. Also, in test [4], the Kd was found to be 0.245 nM, the koff amounted to 0.000315 s⁻¹ and the kon came out at 1.29e+06 M⁻¹ s⁻¹. In test [5], this molecule showed a Kd of 7.93 nM, a koff of 0.0017 s⁻¹ and a kon of 214000 M⁻¹ s⁻¹. Also, in test [6], the “percent of cells in the positive gate” value is 99.8%. Moreover, in test [7], the binding result is “no binding (tested: 100 nM)”.

For the origin of these results see patent US20250368754A1 (KANAPH THERAPEUTICS, published 2025).
